Reference: US8715970B2, “Enzymatically catalyzed method of preparing mono-acylated polyols” (BASF SE, priority 2009, dated 2014)

Experiments:
[1] = Enzyme selectivities and specificities towards 1,4-butanediol with vinyl acetate or vinyl butyrate in MTBE (Example 7); type: biochemical
Description: (§1) Reactions using the CALB mutants as described in Example 5 and Example 6 were run with two different straight chain primary diols: 1,2-ethanediol, ≧99.5% from MERCK and 1,4-butanediol, ≧99% from Aldrich. Two different acyl donors were used: vinyl acetate, ≧99% from Fluka and vinyl butyrate, >99% from Fluka. Decane, ≧99% from Fluka, was used as internal standard. MTBE, 99.5% from Lab-Scan was used as solvent.
(§2) Each diol was dissolved to a concentration of 100 mM together with 1 M of the acyl donor and 20 mM decane in MTBE. Reactions were started by adding 3 ml reaction solution to a specific amount of enzyme carrier beads. Different amounts of enzyme carrier beads were used for the different reactions. For reactions with 1,2-ethanediol and vinyl acetate, 19.7 mg wild type, 22.5 mg A282L, 50.5 mg A281V, and 45.5 A281E CALB were used. […]
(§3) All reactions were analyzed on GC, Hewlett Packard 5890 series II. Two different 25 m×0.32 mm WCOT fused silica columns were used, depending on the different substrates and products that were analyzed. […] The response factor for each diol was determined in relationship to decane. When all diol and mono-ester had converted to di-ester, the response factor for the di-ester could be determined in relationship to decane. The concentration of mono-ester in each reaction was determined by subtracting the concentration of di-ester from the starting concentration of diol.

[2] = Enzyme selectivities and specificities towards 1,2-ethanediol with vinyl acetate or vinyl butyrate in MTBE (Example 7); type: biochemical
Description: as §1, §2, §3

B1: WT: non-mutated Candida antarctica lipase B (CALB), SEQ ID NO: 2, immobilized on carrier beads (protein, listed as Candida antarctica)
chain: LPSGSDPAFSQPKSVLDAGLTCQGASPSSVSKPILLVPGTGTTGPQSFDSNWIPLSAQLGYTPCWISPPPFMLNDTQVNTEYMVNAITTLYAGSGNNKLPVLTWSQGGLVAQWGLTFFPSIRSKVDRLMAFAPDYKGTVLAGPLDALAVSAPSVWQQTTGSALTTALRNAGGLTQIVPTTNLYSATDEIVQPQVSNSPLDSSYLFNGKNVQAQAVCGPLFVIDHAGSLTSQFSYVVGRSALRSTTGQARSADYGITDCNPLPANDLTPEQKVAAAALLAPAAAAIVAGPKQNCEPDLMPYARPFAVGKRTCSGIVTP
modifications: immobilized on carrier beads
Initial reaction rates ([1]; vinyl acetate): 0.12 mol/g/min
Initial reaction rates ([1]; vinyl butyrate): 0.24 mol/g/min
Initial reaction rates ([2]; vinyl acetate): 0.21 mol/g/min
Initial reaction rates ([2]; vinyl butyrate): 0.36 mol/g/min
